From patent WO2011004847A1 (dated 2011)
“And” between values parts separate entries of the source, which are not always exact repeats. Equal values may be shown once.

T1: human α9 integrin molecule expressed on SW480 cells (human, UniProt Q13797 30-1035)
T1 sequence (looked up): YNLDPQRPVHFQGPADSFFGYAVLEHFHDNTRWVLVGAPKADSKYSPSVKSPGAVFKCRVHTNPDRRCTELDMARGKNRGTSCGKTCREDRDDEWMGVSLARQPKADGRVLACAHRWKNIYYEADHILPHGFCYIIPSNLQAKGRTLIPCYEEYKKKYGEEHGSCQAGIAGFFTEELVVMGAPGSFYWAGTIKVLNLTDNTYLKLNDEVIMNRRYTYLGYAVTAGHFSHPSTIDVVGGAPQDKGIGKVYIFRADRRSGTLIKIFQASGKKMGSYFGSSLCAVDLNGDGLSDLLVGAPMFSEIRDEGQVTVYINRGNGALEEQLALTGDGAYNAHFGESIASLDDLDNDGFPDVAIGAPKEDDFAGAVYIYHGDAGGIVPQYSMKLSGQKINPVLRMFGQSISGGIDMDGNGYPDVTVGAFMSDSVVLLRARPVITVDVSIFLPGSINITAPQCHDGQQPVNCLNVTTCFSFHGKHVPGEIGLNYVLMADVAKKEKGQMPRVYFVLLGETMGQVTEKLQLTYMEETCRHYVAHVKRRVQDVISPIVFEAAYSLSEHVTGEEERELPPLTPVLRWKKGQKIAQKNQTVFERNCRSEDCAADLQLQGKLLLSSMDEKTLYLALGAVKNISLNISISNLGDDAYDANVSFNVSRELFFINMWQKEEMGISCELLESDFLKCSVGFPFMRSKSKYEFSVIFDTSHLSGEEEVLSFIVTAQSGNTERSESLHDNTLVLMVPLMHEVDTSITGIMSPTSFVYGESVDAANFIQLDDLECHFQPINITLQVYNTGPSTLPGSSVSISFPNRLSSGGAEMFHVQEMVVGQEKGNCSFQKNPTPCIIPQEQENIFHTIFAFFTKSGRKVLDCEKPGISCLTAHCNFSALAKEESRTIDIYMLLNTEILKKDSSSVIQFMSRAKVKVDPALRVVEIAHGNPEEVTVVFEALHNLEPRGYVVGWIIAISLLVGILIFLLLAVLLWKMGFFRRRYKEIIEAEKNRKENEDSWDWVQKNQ


Target: T1, human α9 integrin molecule expressed on …
Assay: cell-based or functional assay

Binder	cell adhesion inhibitory activity relative to mouse Y9A2 antibody [fold]	concentration giving significant inhibition of migration of SW480/hα9 cells toward nOPN-RAA [µg/mL]	IC50 (μg/mL), cell adhesion inhibition test
RY9A2v12 (W33FM34L) 012 antibody (antibody, human IgG1, kappa, V domains shown) VH: QVQLVQSGAEVKKPGSSVKVSCKASGYTLTTYFLHWVRQAPGQGLEWMGYINPSSGYTEYNQKFQGRVTITADKSTSTAYMELSSLRSEDTAVYYCAIYGDYGDFYFDYWGQGTTVTVSS VL: DIQMTQSPSSLSASVGDRVTITCRASQSVNTDVAWYQQKPGKAPKLLIYFASNHYTGVPSRFSGSGSGTDFTFTISSLQPEDIATYYCRQDYSSPFTFGGGTKVEIKR	~4	5	
RY9A2v12 (W33YM34L) 012 antibody (antibody, human IgG1, kappa, V domains shown) VH: QVQLVQSGAEVKKPGSSVKVSCKASGYTLTTYYLHWVRQAPGQGLEWMGYINPSSGYTEYNQKFQGRVTITADKSTSTAYMELSSLRSEDTAVYYCAIYGDYGDFYFDYWGQGTTVTVSS VL: DIQMTQSPSSLSASVGDRVTITCRASQSVNTDVAWYQQKPGKAPKLLIYFASNHYTGVPSRFSGSGSGTDFTFTISSLQPEDIATYYCRQDYSSPFTFGGGTKVEIKR	~4	5	
mouse anti-human α9 integrin antibody Y9A2 (antibody, V domains shown) VH: QVQLQQSGAELANPGASVKMSCKASGYTLTTYWMHWVKQRPGQGLEWIGYINPSSGYTEYNQKFKDKATLTADKSSSTAYMQLTSLTSEDSAVYYCAIYGDYGDFYFDYWGQGTTLTVSS VL: SIVMTQTPKFLLVSAGDRVTMTCKASQSVNTDVAWFQQKPGQSPKLLIYFASNHYTGVPDRFTGSGYGTDFTFTISTVQAEDLAIYFCRQDYSSPFTFGGGTKLEIKR		50	0.07 µg/mL and 0.039 µg/mL
